{
  "source": "patent EP3636665A1",
  "about": "(dated 2020)",
  "binders": {"B1": {"name": "6F9 TCR (TCR, V domains shown)", "Valpha": "AQTVTQSQPEMSVQEAETVTLSCTYDTSESDYYLFWYKQPPSRQMILVIRQEAYKQQNATENRFSVNFQKAAKSFSLKISDSQLGDAAMYFCALRSSGTYKYIFGTGTRLKVLA", "Vbeta": "GAGVSQSPSNKVTEKGKDVELRCDPISGHTALYWYRQSLGQGLEFLIYFQGNSAPDKSGLPSDRFSAERTGGSVSTLTIQRTQQEDSAVYLCASIRTGPFFSGNTIYFGEGSWLTVV"}},
  "key": {"[1]": {"biological_target": "T1, MAGE-A3 peptide on HLA-DPB1*04:01 (human)", "T1 peptide": "KKLLTQHFVQENY", "assay": "cytokine release"}, "[2]": {"biological_target": "T2, MAGE-A1 and a second family member (printed 'MRGE-A1/R4') peptide on HLA-DPB1*04:01 (human)", "T2 peptide": "QDLVQEKYLEY", "assay": "cytokine release"}},
  "data": [
    {"binder": "B1", "values": [
      {"measurement": "binding result", "setting": "[1]", "result": "no recognition"},
      {"measurement": "binding result", "setting": "[2]", "result": "no recognition"}
    ]}
  ]
}
